{"source": "a protein production outcome set (Wang et al. 2014)"}
{"test": "label from the status in PepcDB records"}
{"sequence": "MMRSSKIGFRSLAVWPFSLTAFFFFLLHPCVSAQRVYKPEDVPNVQLADSTRLVTDEAGLLSNAQEEVMNGRLRAIRSSHAVEFAVVTLPSIGDAPLEDFTLKLARQWGVGNEKNNNGLLLVLVLDQRRVRFETGYGLEGYLPDGLLSRIIHDRMIPHFRSGNYAEGLSEGVLAVQQVLDGSYDVKPDGGDRSAVSRVSWGTIFIFYCFFMLLASASVLYQLTSYRRQYPRATAVEEYEFLRRRISMLGCVFLLLFPPGFIVVMAIIKSRQNKLKKEMAVCPCCHQHSVHLLDQSLEEDRYLSPSQQMEHKLKSRDFRVYACSSCDHTQIIGYDHPGTSYKRCPNCGTVALRYMGEKRVRTDRGMMIRKEWRCLYCGENHTQEYRDNNDAEAAATGILLGSLLGRGGRSGGFGGGFGGGGFGGGSFGGGGASGGWLEHHHHHH", "protein production": "failed"}
{"sequence": "MMRSVGAVGEPLVVMCVACPRRGGCVVTVVAAAKSCWCRGVSRNLNPGLCPARRVSVRHSGSCILWCGLPSGRVAAVSLPSDPRRFQRIYIEWQSIYLLNMAQQQRMQGQPMIIMGDDAQRVKDRDAQEHNISAARAVADAVRSTLGPKGMDKMLVSSMGDVTVTNDGVTILQEMDIDNPTAEMIVEVAETQEDEAGDGTTTAVAIAGELLKNAEDLLERDIHPTAIIKGYNLAAEQAREEVDNVAVDVDPDDKDLIRSVAETSMTGKGAELDKELLSSIIYDAVNQVAVETNDGGIVVDAANINIETQTGHGVNESQLLRGAAISKDPVHDQMPAAVEDADVLLLNEAIEVEEAEADTSVNIESPDQLQSFLDQEEKQLKEKVQQIADTGANVVFCQKGIDDMAQHYLAKEGILAVRRTKKSDIEFLTNVLDASVVTDLDAASEADVVAGSVTRDSDDELFYVEGESEQAHGVTLLLRGSTDHVVDELERGVSDALDVSAQTLSDGRVLPGGGATEVEVASRLRDFADSVSGREQLAVEAFADSLELVPRVLAENAGLDSIDTLVDLRSAHENDDDEHIGLNVLSGDLEDTFEAGVVEPAHAKEQAVTSASEAANLVLKIDDIISAGDLSTDKGDDDGGAGGMGGGMGGGMGGMM", "protein production": "failed"}
{"sequence": "MMSDLPRDLLEERLSRVPVKSLREARFTCKNWKTLSKKRSFTKKHLAQEATSRESEFKVVMVLHCKVYLTSINLRGIHNGFDPSINRQAKLVSLNGTDQIDISEVYHCDGLLLCISKDYTRVVVWNPYRSQTLWLKPSSPDHRMDWYICAIGYEKRKSSLRYKVLRFVDFAEEEFVEYEIYELKSNSWRVLDVTSDWEVEFYARGVSLKGNTYWFATDKFPEISSNLIHSVYFLLCFNFTSERFGPRLHLPCYPMDVDTVSLSSVREEQLAVLFQRKDNLHMEIWVTTKIEPEEVMWSKLFLAVDMQPLTDFKFGIADASFIIDEEKKVVVVFAKDKDVMYPTHNTAYIIGEDGYYKEVDLGKTTDKIRDPLVCSYVPSSAQIKQGGKRKKKGKLITD", "protein production": "failed"}
{"sequence": "MMSIKWEQEWDRIYKEQGEVQSEILPTVKVEKDIFKRFGCKKVMDLGCGTGRHTIYLAQNGYQVFAVDISETGIEVTRAKAEKLNLTNIEFAQLDMRNLSVDDNLMDAIMCVWTSGHGTFEDARKNLKEMYRILRLGEILVIDYVSREDENYGKGTEIEKNTFINNVEGEENIPHHYFAKEEIEELYTDFSDVDINPVDYYFTDSYGTRHTIKAFVVIAVK", "protein production": "failed"}
{"sequence": "MMTAPGIYYDGRTSARRTVRLTLEGNRLLVAGEGVETSAELSRLAISSPLSTARRSVRFPSGALCEVSDTRFVDELMRRQGKGRASAAIHRWERSLPLALVALVATVAVVWGFVAFGIPALADKVARAVPPVTEVSLGRESLAMLDKLVFTPSRLPDARRRDIAAQFSRMGRDLPFAAGYRLEFRRSDQLGANALALPSGIIVVTDRLVEIAQSDDELIGVLAHEMGHVRHRHALRHVLQNSATGLIIAAITGDITSITSLAATLPTVLVDASYSRSFETEADDAAVAYLKRRGIPLKSYAAMLGRLEAEHRKKQEEKGKKEKKSLGDYFSTHPVTEERIKRVLEAGRLEHHHHHH", "protein production": "not failed"}
{"sequence": "MMTGLYLGALAGIAVALAVLMAGAWVVQQLTGNSGWVDTIWTFSLGLTGAVSSLWPIDGAAPDARQWLVAVLVATWSLRLGSHIAARTRHITDDPRYAAYAAQWGTDAPKRMFFFLQNQAYGTIPLVFAIFVAAHAPAGSLRLQDYLGVLILIVAIAGEGLSDAQLKAFRENSANKGKVCDAGLWRWSRHPNYFFQWFGWLAYPVIAIPFAEPLSYLWGYAALLAPLFMYWILVYVTGIPPLEEQMLKSRGDRYRDYQARTSMFFPLPPRRSATL", "protein production": "failed"}
{"sequence": "MMTKAFFNKLPFEVFRRYVRTGKSIPQRSPRTRKSLLVGGTIASAVVLYNFNDTFHDSVKHTALTTKRIAVVTQATTRCFYHYKRALNKSYENKKEREVALNKCHKMCALITLHALRSNGGIYIKLGQHIGAMTYLLPKEWTDTMIPLQDHCPESTYEEIDELFKEDLGTSIEDMFLEFNKTPIGVASLAQVHVAKLKNSDGKGSSVAVKCQHPSLKEFIPLDVMLTRTVFELLDVFFPDYPLTWLGDELQSSIYVELNFTKEAENAEKTRHYFSKFKKQTALKIPKVIESHKRILIAEYVGGKRLDDLEYIDSHGISRSEVSSCLSHIFNNMIFTPNVGIHCDPHGGNLAIRSVKPAKDNGYHNFEIVLFDHGLYRYPSTRTRRLYAKFWLSLLFDKDQTKMKKYAKGFANITDEQFPLLAAAITGRSIDAALNYDISTSRTQEEMDVMANGILEGTLLSDLMSILSRIPRVVLLILKTNDLTRHLDECLQNPLGPERTFLIMTQYCAKTVYDEKVERINSEYARWSIKWMWENLTNWIVYERRINQLYFYDFVLWWKKFIPKTWLSS", "protein production": "failed"}
{"sequence": "MMTLIRITSADDSRLNRLIPLYEESFPESERRKIGQLKRMIENHAPMYFNAIECDGELSGMFVYWDMGDFYYLEHLAVFPEMRNKKIGQQVLDYVAEHLKGVRLLEVEPTEDEMTTRRVNYYRRNGYEVLDKTYVQPSYHA", "protein production": "failed"}
{"sequence": "MMVGLINAIPVANKDEYKNVGVYIEHRGDEIKRSSLEMIGIGKQLARKINEKLLCVVIGDKVDGIAKEVGEYGCDIVLAAESPDLAEYRTMPYAQIIGDYIAEYKPNIFLLAATRNGRDLASRIAVKERTGITADCTVLDVDENRTLLANRPTYGESTLAEILCRNHRPQMATARPGTFTPAEKEKDHKYEIVKKKVNVDKNMLKKQIIKFIPKKATDLTAAKIVVAGGLGLGGPDGFKLLQDLADLIGGAVGSSRPPVDLGWITRDHQVGQTGQAVRPDLYVAVGISGKPQHVAGMKFSKVIISINKDPNAEINKISDYIIVEDYRKAVPALIDAIKNFGKQKVAEAQKA", "protein production": "failed"}
{"sequence": "MMYSKFISFLKQIPLPICGLILGLISLGNLLYSKGYPILGNSYDMLGLFLMFLILLKIVLAMKHTISTLNDPIVASVSPTFTMSLMVLSVFLKRLSGFSLLANVTWWTALILHLILMMYFIYLHVLPKELKIHDVYPSWFITFVGIGVISATSPDFGLEVGKVVVWITLLFYFILLPIVMHRVFILRKMHKSLLPLITIITAPGSLGLVGYLTVVEAKSKIFVIFLFILSQAIYFITLGLLTKLLRSAFYPSYAAFTFPLVISATAVNLTSKLSVFQFLNLELLANMEILIAIAIVTYVLIRYCIFLGSKLVQIMSEKYSPESI", "protein production": "failed"}
{"sequence": "MMYVTVMPVFLAGVANRFFCKSDILAWTYQPIDGGFTMSDGKRILGANKTWKGFWGMITLTTFCQVIWGFILGIIPHLLTFSLVKSYHNDIFFNLFIGFLMGSAYVLCELPNSFIKRRFNVSPGQLASGNARWVFLFADQIVPFLGSIAVVAIFSPMTFSYYVGYVLLAAITLFAINSLILFVEMKRK", "protein production": "failed"}
{"sequence": "MNAAQVQALIRMGLPMAEDIDFRVERLDERHALARIPFHGKLVRPGGTLSGPTIMALADAAMYAVILGRLGAVEMAVTSNLNINFLSKPRPEDLLAEASILKLGRRQVVCEVGVFSQSNEEDLVAHVTGTYALPLLEHHHHHH", "protein production": "not failed"}
{"sequence": "MNAARYAEHLAIFVEVARGGSFSAVARRHGATPSTITRKIDMLEEFVGTNLLVRSTRALLLTEAGETLFARGVSVLEALTDIHNEVIALSDSMYGTLRISCLPTFGKLHVLPWLADLQQRHPSMRIDLDLTERLTNPSVERLDAAIRIGKLKDSSLFAKQIGTQRWVICASPDYLRQRGHPSDLEDLRRLRLIDKLHDPHSMCWRRLVEKGHIDQIEAAFRCDDFEAMRQAALCGLGAAFLPDWVIAQDLAAGALIRLFDDPEGREDGIHLVRALPKMSAKLEVFHQALSNHLGQVRIGGCLPASR", "protein production": "failed"}
{"sequence": "MNAATLVDTHAVDTALQEAFEAAPEGFALFDAEDRCVIWNARYGELWSKWGVTLAVGATFESLLLAGLAAGRFPEANGDRAAWLAHQLGRRKLDRIEEIREEFGEYLRFESRRTPAGGLITTCANLTNLRRREAQALAARSFLDTIVENTPAMLFVKDGDTGAFLLVNRAAENQLGVPRAELLGKSDYDFFPKEQADAFAADDRRVIASGKLVTIDEEPLDTPHNGRRWLQTRKIAIPGEDGRRHLLVICEDITERKAGAAALAEALQKAEAGSVAKSEFLANMSHEIRTPLNGVIGMAEVLSRTALDDAQREMMEVILNSGRALNLLLSDILDLSKIEAGGLELSRDPLDLREAITAAVAVFKAVAESKGLVFRLTFADDFHDHVLGDALRVRQIVANLTSNAVKFTTAGSVIIEARTLVAEDGRIDLTVSVQDTGEGFDEDSADRLFERFQQADGSVTRKVGGTGLGLPIARRLARLMDGEISCVAHPGEGATFVFEALFLADGQRTPALEHHHHHH", "protein production": "failed"}
{"sequence": "MNAIGIVGTGAMGRGIAQIAAQAGLRVRLFDASPQAVEAARAALADTLARLAAKGRLTADQADAALARLMPAAALAELADCDLVVEAIVENLEAKRDLFRQLEAIVGPETILASNTSSLSITAIAAACRRPERVAGFHFFNPVPLMKVVEVIAGLRSAPAACDALAALAGRMGHAAVRCTDMPGFIVNHAGRGMNTEGLRVVQEGVTAFADVDAVMREQAGFRMGPFELMDLTGLDVSHPVMESIYRQFYDEPRYRPSRITAVRLAGGLLGRKTGEGFYRYADGQKPVPPEAAAPAARPKSVWVSRAHAAGHTAAQRLLLDLCVTPEDGAWPSAEALIVVTPRGLDATAAAVAEGLDGRRTVALDTLYPFAATRRRTLMTTPATDPAHRDAAHGLFAADGVPVTVIRDSGGFVAQRIVACIVNIACDIAQQRIATPADIDLAVTLGLGYPQGPLALGDTLGAGAVLEVLQNLTTLYGDPRYRPSPWLLRRARLGLSLLTPDA", "protein production": "failed"}
{"sequence": "MNAKIIASLAFTSMFSLSTLLSPAHAEEQEKALNFGIISTESQQNLKPQWTPFLQDMEKKLGVKVNAFFAPDYAGIIQGMRFNKVDIAWYGNLSAMEAVDRANGQVFAQTVAADGSPGYWSVLIVNKDSPINNLNDLLAKRKDLTFGNGDPNSTSGFLVPGYYVFAKNNISASDFKRTVNAGHETNALAVANKQVDVATNNTENLDKLKTSAPEKLKELKVIWKSPLIPGDPIVWRKNLSETTKDKIYDFFMNYGKTPEEKAVLERLGWAPFRASSDLQLVPIRQLALFKEMQGVKSNKGLNEQDKLAKTTEIQAQLDDLDRLNNALSAMSSVSKAVQ", "protein production": "failed"}
{"sequence": "MNAKSRPSRKLLKGAVIGPAQLMADQPFSVIRAVSRRSDRDHVGVLAAGVAFFSLLASFPALVTLITLYGLFTGPQEAVRQIAEAGVYLPRGVHDLLAEHLPRLAQASPGSLGLGAITSLLFSIWSASRGMGAMVDGVDIAYQVGDGRGFLRKSILVVGLTLAGLVVSAIALPLIVGLPALFDRLPLPLEIRWALALARWPLLFALVLGALAVLFRYAPDRENPRWRWVTPGALAAATLWILASGGLSLYVGLVSSYDQTYGTLAGVVVAMMWLYLASYAVLLGAEINAELEDRGMERIKKDQAAAKAAVARA", "protein production": "failed"}
{"sequence": "MNALALGAKSFPIFWHYWNPIWGYYLSRNVMRPISQFLPMWLAVLVTFLVSGALHDLAIALVKWQAMFFFTPWFGIMGVIVIASNKYGLSYGALPWIMRAMINLLFILSSFSLTELTQGLLRLSA", "protein production": "failed"}
